The values below come from patent US20150151000A1 (INDIANA UNIVERSITY RESEARCH AND TECHNOLOGY, published 2015).

Assay [1] addresses CRMP2 (endogenous, rat brain synaptosomes, rat brain lysates and rat dorsal root ganglia lysates) (rat, UniProt P47942 1-572). Kind of assay: SPOTS peptide array overlaid with rat brain synaptosome fraction, anti-CRMP2 far-Western.
The target in assay [2] is T1, CRMP2-His (recombinant collapsin response mediator protein 2, NT647-labeled).
T1 construct: Purified on Talon resin and labeled with NT647 for microscale thermophoresis; also called recombinant CRMP2; NT647-labeled CRMP2
Kind of assay: microscale thermophoresis, NT647-labeled CRMP2 constant, peptide titrated 0 to 5 µM, Hill fit.

B1: Ct-dis peptide (CaV1.2[2014-2028]) (peptide)
peptide: NSSFPSIHCSSWSEE
notes: also called Ct-Dis (CaV1.2 (L)); [2014-2028]; Ct-dis
B1: the binding result in assay [1] is “binds”. Besides, the Kd in assay [2] was 0.64 µM.

B2: L1 (CaV2.1) peptide (peptide)
peptide: YMEWISKAEEVILAE
notes: Immobilised 15-mer spot; also called L1 peptide of P/Q (CaV2.1)-type channel
B2: the binding result in assay [1] was “binds”.

B3: L1 (CaV2.3) peptide (peptide)
peptide: YRAWIDKAEEVMLAE
notes: Immobilised 15-mer spot; also called L1 peptide of R (CaV2.3)-type channel
For the molecule B3, in assay [1], the binding result is recorded as “binds”.

B4: L1 peptide (CaV2.2[388-402]) (peptide)
peptide: YLEWIFKAEEVMLAE
notes: 15-mer from the first intracellular loop of CaV2.2; It was immobilised as a spot in the SPOTS array and used as a synthetic peptide in MST; also called L1 (CaV2.2); [388-402]; L1
With B4, the binding result in assay [1] is reported as “binds”. In assay [2], the Kd is 3.12 µM.

B5: L1 (CaV1.2) peptide (peptide)
peptide: YLDWITQAEDIDPEN
notes: Immobilised 15-mer spot; also called L1 peptide of L (CaV1.2)-type channel
With B5, the binding result in assay [1] is listed as “binds”.

The Kd is the constant that tells how readily two partners part at equilibrium.
